Experimental data published in patent publication US20140234868A1, “USE FOR GLYCOLIPOPROTEIN GINTONIN, ISOLATED AND IDENTIFIED FROM GINSENG, AS A NATURAL MEDICAL-PLANT DERIVED LIGAND” (KONKUK UNIVERSITY INDUSTRIAL COOPERATION CORP., priority 2011, published 2014).

Tests used:
[1] = target: T1, mutant W4.64A LPA3 receptor (Homo sapiens, UniProt Q9UBY5, W167A); assay: Intracellular Ca2+ in B103 cells with mutant W4.64A LPA3 receptor; type: cell-based; settings: W4.64A LPA3 receptor-transfected B103 cells
T1 construct: expressed in transfected cells; host or cells: B103 rat neuroblastoma cells
T1 sequence (Q9UBY5 1-353 W167A): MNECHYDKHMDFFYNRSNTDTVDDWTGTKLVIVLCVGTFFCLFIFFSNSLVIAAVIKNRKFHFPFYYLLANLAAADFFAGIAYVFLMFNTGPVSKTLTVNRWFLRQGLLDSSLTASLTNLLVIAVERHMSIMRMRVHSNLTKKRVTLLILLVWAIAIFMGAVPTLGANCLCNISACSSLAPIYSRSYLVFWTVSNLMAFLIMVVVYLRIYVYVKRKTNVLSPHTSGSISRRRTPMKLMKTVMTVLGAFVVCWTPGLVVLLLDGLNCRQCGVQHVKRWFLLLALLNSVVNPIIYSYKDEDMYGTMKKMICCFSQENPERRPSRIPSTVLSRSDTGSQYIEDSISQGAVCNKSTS
Source text: That is, LPA receptors have specific amino acid residues, known as binding sites, which are responsible for interaction with LPA, and the binding of LPA to the specific amino acids starts to exert the function. This Example was configured to examine a change in the gintonin-induced intracellular calcium increase through LPA receptor activation in LPA3 receptor-expressing cells when specific amino acids of the LPA binding site in LPA receptors were mutated.
To this end, a mutant LPA receptor in which Arg3.28, known as a common LPA binding site of LPA1-LPA3 receptors, was mutated as Arg3.28Ala (that is, Arg is substituted by Ala; R3.28A) or Trp4.64, known as an LPA-binding site of LPA3 receptor was mutated as Trp4.64Ala (that is, Tip is substituted by Ala; W4.64A) (Valentine et al., J. Biol. Chem. 283, 12175-12187, 2008) was transfected to B103 cells which were then tested for the action of gintonin, in comparison with cells transfected with the wild-type. […] From the result, it is henceforth understood that the gintonin-triggered LPA receptor activation is achieved by interaction with the LPA binding sites of LPA receptors and that gintonin occupies the LPA binding sites to activate LPA receptors.

[2] = tested on: mutant NMDA receptor (S1312A); assay: Gintonin-induced activation of mutant NMDA receptor S1312A in oocytes; type: cell-based
Protocol: Two-electrode voltage-clamp recordings were obtained from individual oocytes placed in a small Plexiglas net chamber (5 ml). Electrophysiological experiments were performed using microelectrodes filled with 3 M KCl (resistance of 0.2-0.7 MΩ) and an Oocyte Clamp amplifier (OC-725C; Warner Instrument, Hamden, Conn.). For physiological recordings of NMDA receptor activity, oocytes were first perfused with Mg^2+-free ND96 (mM: 96 NaOH, 2 KOH, 0.3 CaCl2, 5 HEPES pH 7.6 with methanesulfonic acid). Then, the oocytes were clamped at −60 mV holding potential, followed by recoding NMDA currents (induced by administering […]) (Zheng et al., J Neurosci. 17, 8676-8686, 1997; Chang and Kuo, J Neurosci. 28, 1546-1556, 2008).
Thus, it is understood that gintonin stimulates PKC to phosphorylate the NMDA receptor at a specific site (S1308), and thus that gintonin-induced NMDA receptor activation is associated with PKC activity.

[3] = tested on: HUVECs; assay: HUVEC migration, Boyden chamber; type: cell-based, human; settings: 70~80 min, 37° C.
Protocol: To measure the effect of gintonin on cell migration, a Boyden chamber (Neuro Probe Inc., Gaithersburg, Md., USA) assay was employed (Kim et al. Biol Pharm Bull 30: 1674-1679, 2007; Lee et al. Am J Physiol Cell Physiol 278:C612-C618, 2000).
In the Boyden chamber (48 wells) of two compartments separated by a collagen-coated polycarbonate microporous membrane (8-μm pores), gintonin in M199 (0.1% BSA contained) was placed onto the wells of lower compartment while a HUVEC suspension was added to the wells of the upper compartment (5×10^4 cells/well). During incubation at 37° C. for 70˜80 min, the cells were allowed to migrate through the membrane into the lower compartment. Then, the chamber was disassembled, and the cells on the membrane was fixed and stained with Diff Quik (Sysmex, Kobe, Japan), and mounted on a slide.

[4] = tested on: HUVECs; assay: HUVEC proliferation, BrDU incorporation ELISA; type: cell-based, human; settings: gintonin 24 hrs
Protocol: In this Example, gintonin was examined for effect on cell growth. In this regard, HUVECs (human umbilical vein endothelial cells) were cultured with BrDU in the presence of gintonin, and analyzed for relative BrDU content by BrDU assay (Won et al., J Pharmacol Sci 108, 372-379, 2008; Chen et al., Cell Physiol Biochem 22, 307-314, 2008) using a BrDU cell proliferation ELISA kit (Roche, Germany).
Briefly, cells were seeded at a density of 3×10^3 cells/well into 96-well plates one day before treatment with gintonin. After 24 hrs of incubation, the cells were cultured for 6 hrs in a fresh M199 medium supplemented with […]. Again, the medium was changed to a fresh M199 medium supplemented with […], after which the cells were incubated with gintonin for 24 hrs. For an additional 24 hrs, the cells were incubated with a BrDU labeling reagent. After medium was removed, the cells were washed with 10% FBS-supplemented M199, fixed with a fixative, and quantitatively analyzed for relative intracellular BrDU content using an anti-BrDU-peroxidase antibody and a luminometer (Veritas, Turner Biosystems, USA).

B1: gintonin: ginseng-derived glycolipoprotein; structural protein of ginseng major latex-like protein (MLP151) and ribonuclease-like storage proteins; crude gintonin used in tests (protein)
chain 1: MGLTGKLICQTGIKSDGDVFHELFGTRPHHVPNITPANIQGCDLHEGEFGKVGSVVIWNYSIDGNAMIAKEEIVAIDEEDKSVTFKVVEGHLFEEFKSIVFSVHVDTKGEDNLVTWSIDYEKLNESVKDPTSYLDFLLSVTRDIEAHHLPK
chain 2: RSDYPWAMFALRLQWPAGFCEVNNACDTKSLLNTFTIHGLYPYNAKGTPALYCDGTAFDVNSVSDFLAEMHLAWPSHETNTEDIQFWEHEWKKHGRCSEALLKQTDYFRTALAFRKAFDIVGLLNQEGIYPNNDLYRPKMIKEAIKKHLNAVPEIDFTKNENSEYVLTDINVCVNQQATRFVDCPTDDATDDYRLKFVRLPSKMKFADPRTNSII
With B1 the “gintonin-induced intracellular calcium increase vs wild-type” value [1] was “greatly reduced”, the “gintonin-induced NMDA receptor activation” value [2] was “maintained gintonin-induced NMDA receptor activation” and the cell migration [3] was “promoted cell migration in a concentration-dependent manner”. For the same molecule, the “incorporation of Br-DU into DNA” value [4] was “increase the incorporation of Br-DU into the DNA of HUVECs in a concentration-dependent manner”.
